Source: article PMC11764377

How the values were obtained:
[1] = target: Allochromatium tepidum LH1 α2β1 heterodimer subunit (of the Ca2+-free LH1-α2β1 complex) (Allochromatium tepidum); test: cryo-EM structure; LH1-only complex co-expressed in Rsp. rubrum H2 and purified in β-DDM, ~5 mg/mL; C14 symmetry applied; closed ring of 14 αβ-heterodimers
[2] = target: Allochromatium tepidum LH1 α1β1 heterodimer subunit (of the Ca2+-bound LH1-α1β1 complex) (Allochromatium tepidum); test: as above

Substance	stoichiometry N [1]	stoichiometry N [2]
Allochromatium tepidum LH1 α2β1 heterodimer subunit (of the Ca2+-free LH1-α2β1 complex)	14	–
Allochromatium tepidum LH1 α1β1 heterodimer subunit (of the Ca2+-bound LH1-α1β1 complex)	–	14
